Test results from patent US20210388110A1 (published 2021).

Each binder was assayed against T1, soluble human GPC3 (human, UniProt P51654 25-563, limits assumed) (assay: SPR (Biacore), single-arm antibody, soluble human GPC3).
T1 construct: also called glypican 3
T1 sequence (P51654 other isoform, or with tags, fused parts or gaps limits assumed, form in doubt): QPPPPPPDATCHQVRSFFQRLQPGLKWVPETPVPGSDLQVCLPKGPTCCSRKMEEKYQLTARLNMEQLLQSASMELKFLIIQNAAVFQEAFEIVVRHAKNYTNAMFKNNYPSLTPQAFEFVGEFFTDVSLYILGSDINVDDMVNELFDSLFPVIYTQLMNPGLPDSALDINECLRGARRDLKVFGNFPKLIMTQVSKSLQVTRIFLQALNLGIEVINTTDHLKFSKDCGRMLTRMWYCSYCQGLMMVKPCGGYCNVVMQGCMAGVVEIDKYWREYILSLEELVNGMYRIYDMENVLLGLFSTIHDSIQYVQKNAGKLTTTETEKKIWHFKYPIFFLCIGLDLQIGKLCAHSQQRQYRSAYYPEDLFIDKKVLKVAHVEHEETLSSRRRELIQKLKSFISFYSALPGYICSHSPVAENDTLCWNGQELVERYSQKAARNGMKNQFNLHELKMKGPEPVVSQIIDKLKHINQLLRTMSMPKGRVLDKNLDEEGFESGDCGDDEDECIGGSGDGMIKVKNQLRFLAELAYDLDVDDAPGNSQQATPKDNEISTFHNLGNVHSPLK

Binder | Kd [nM]
GCH067-G1dh/none-Hi-Kn010G3/L0000-k0 (antibody, human IgG1, kappa, single-arm antibody) heavy: not shown EPKSSDKTHTCPPCPAPELLGGPSVFLFPPKPKDTLMISRTPEVTCVVVDVSHEDPEVKFNWYVDGVEVHNAKTKPREEQYNSTYRVVSVLTVLHQDWLNGKEYKCKVSNKALPAPIEKTISKAKGQPREPQVCTLPPSRDELTKNQVSLWCLVKGFYPSDIAVEWESNGQPENNYKTTPPVLDSDGSFFLYSKLTVDKSRWQQGNVFSCSVMHEALHNRYTQKSLSLSP light: DIVMTQSPLSLPVTPGEPASISCRSSQSLVHSNRNTYLHWYQQKPGQAPRLLIYKVSNRFSGVPDRFSGSGSGTDFTLKISRVEAEDVGVYYCGQGTQVPYTFGQGTKLEIKRTVAAPSVFIFPPSDEQLKSGTASVVCLLNNFYPREAKVQWKVDNALQSGNSQESVTEQDSKDSTYSLSSTLTLSKADYEKHKVYACEVTHQGLSSPVTKSFNRGEC | 5.24
GCH056-G1dh/none-Hi-Kn010G3/L0011-k0 (antibody, human IgG1, kappa, single-arm antibody) heavy: not shown EPKSSDKTHTCPPCPAPELLGGPSVFLFPPKPKDTLMISRTPEVTCVVVDVSHEDPEVKFNWYVDGVEVHNAKTKPREEQYNSTYRVVSVLTVLHQDWLNGKEYKCKVSNKALPAPIEKTISKAKGQPREPQVCTLPPSRDELTKNQVSLWCLVKGFYPSDIAVEWESNGQPENNYKTTPPVLDSDGSFFLYSKLTVDKSRWQQGNVFSCSVMHEALHNRYTQKSLSLSP light: DIVMTQSPLSLPVTPGEPASISCRSSQPLVHSNRNTYLHWYQQKPGQAPRLLIYKVSNRFSGVPDRFSGSGSGTDFTLKISRVEAEDVGVYYCGQGTQVPYTFGQGTKLEIKRTVAAPSVFIFPPSDEQLKSGTASVVCLLNNFYPREAKVQWKVDNALQSGNSQESVTEQDSKDSTYSLSSTLTLSKADYEKHKVYACEVTHQGLSSPVTKSFNRGEC | 4.31
GCH034-G1dh/none-Hi-Kn010G3/L0000-k0 (antibody, human IgG1, kappa, single-arm antibody) heavy: not shown EPKSSDKTHTCPPCPAPELLGGPSVFLFPPKPKDTLMISRTPEVTCVVVDVSHEDPEVKFNWYVDGVEVHNAKTKPREEQYNSTYRVVSVLTVLHQDWLNGKEYKCKVSNKALPAPIEKTISKAKGQPREPQVCTLPPSRDELTKNQVSLWCLVKGFYPSDIAVEWESNGQPENNYKTTPPVLDSDGSFFLYSKLTVDKSRWQQGNVFSCSVMHEALHNRYTQKSLSLSP light: DIVMTQSPLSLPVTPGEPASISCRSSQSLVHSNRNTYLHWYQQKPGQAPRLLIYKVSNRFSGVPDRFSGSGSGTDFTLKISRVEAEDVGVYYCGQGTQVPYTFGQGTKLEIKRTVAAPSVFIFPPSDEQLKSGTASVVCLLNNFYPREAKVQWKVDNALQSGNSQESVTEQDSKDSTYSLSSTLTLSKADYEKHKVYACEVTHQGLSSPVTKSFNRGEC | 5.09
GCH061-G1dh/none-Hi-Kn010G3/L0000-k0 (antibody, human IgG1, kappa, single-arm antibody) heavy: not shown EPKSSDKTHTCPPCPAPELLGGPSVFLFPPKPKDTLMISRTPEVTCVVVDVSHEDPEVKFNWYVDGVEVHNAKTKPREEQYNSTYRVVSVLTVLHQDWLNGKEYKCKVSNKALPAPIEKTISKAKGQPREPQVCTLPPSRDELTKNQVSLWCLVKGFYPSDIAVEWESNGQPENNYKTTPPVLDSDGSFFLYSKLTVDKSRWQQGNVFSCSVMHEALHNRYTQKSLSLSP light: DIVMTQSPLSLPVTPGEPASISCRSSQSLVHSNRNTYLHWYQQKPGQAPRLLIYKVSNRFSGVPDRFSGSGSGTDFTLKISRVEAEDVGVYYCGQGTQVPYTFGQGTKLEIKRTVAAPSVFIFPPSDEQLKSGTASVVCLLNNFYPREAKVQWKVDNALQSGNSQESVTEQDSKDSTYSLSSTLTLSKADYEKHKVYACEVTHQGLSSPVTKSFNRGEC | 5.13
GCH055-G1dh/none-Hi-Kn010G3/L0000-k0 (antibody, human IgG1, kappa, single-arm antibody) heavy: not shown EPKSSDKTHTCPPCPAPELLGGPSVFLFPPKPKDTLMISRTPEVTCVVVDVSHEDPEVKFNWYVDGVEVHNAKTKPREEQYNSTYRVVSVLTVLHQDWLNGKEYKCKVSNKALPAPIEKTISKAKGQPREPQVCTLPPSRDELTKNQVSLWCLVKGFYPSDIAVEWESNGQPENNYKTTPPVLDSDGSFFLYSKLTVDKSRWQQGNVFSCSVMHEALHNRYTQKSLSLSP light: DIVMTQSPLSLPVTPGEPASISCRSSQSLVHSNRNTYLHWYQQKPGQAPRLLIYKVSNRFSGVPDRFSGSGSGTDFTLKISRVEAEDVGVYYCGQGTQVPYTFGQGTKLEIKRTVAAPSVFIFPPSDEQLKSGTASVVCLLNNFYPREAKVQWKVDNALQSGNSQESVTEQDSKDSTYSLSSTLTLSKADYEKHKVYACEVTHQGLSSPVTKSFNRGEC | 5.6
GCH025-G1dh/none-Hi-Kn010G3/L0000-k0 (antibody, human IgG1, kappa, single-arm antibody) heavy: not shown EPKSSDKTHTCPPCPAPELLGGPSVFLFPPKPKDTLMISRTPEVTCVVVDVSHEDPEVKFNWYVDGVEVHNAKTKPREEQYNSTYRVVSVLTVLHQDWLNGKEYKCKVSNKALPAPIEKTISKAKGQPREPQVCTLPPSRDELTKNQVSLWCLVKGFYPSDIAVEWESNGQPENNYKTTPPVLDSDGSFFLYSKLTVDKSRWQQGNVFSCSVMHEALHNRYTQKSLSLSP light: DIVMTQSPLSLPVTPGEPASISCRSSQSLVHSNRNTYLHWYQQKPGQAPRLLIYKVSNRFSGVPDRFSGSGSGTDFTLKISRVEAEDVGVYYCGQGTQVPYTFGQGTKLEIKRTVAAPSVFIFPPSDEQLKSGTASVVCLLNNFYPREAKVQWKVDNALQSGNSQESVTEQDSKDSTYSLSSTLTLSKADYEKHKVYACEVTHQGLSSPVTKSFNRGEC | 5.05
GCH059-G1dh/none-Hi-Kn010G3/L0000-k0 (antibody, human IgG1, kappa, single-arm antibody) heavy: not shown EPKSSDKTHTCPPCPAPELLGGPSVFLFPPKPKDTLMISRTPEVTCVVVDVSHEDPEVKFNWYVDGVEVHNAKTKPREEQYNSTYRVVSVLTVLHQDWLNGKEYKCKVSNKALPAPIEKTISKAKGQPREPQVCTLPPSRDELTKNQVSLWCLVKGFYPSDIAVEWESNGQPENNYKTTPPVLDSDGSFFLYSKLTVDKSRWQQGNVFSCSVMHEALHNRYTQKSLSLSP light: DIVMTQSPLSLPVTPGEPASISCRSSQSLVHSNRNTYLHWYQQKPGQAPRLLIYKVSNRFSGVPDRFSGSGSGTDFTLKISRVEAEDVGVYYCGQGTQVPYTFGQGTKLEIKRTVAAPSVFIFPPSDEQLKSGTASVVCLLNNFYPREAKVQWKVDNALQSGNSQESVTEQDSKDSTYSLSSTLTLSKADYEKHKVYACEVTHQGLSSPVTKSFNRGEC | 5.7
GCH057-G1dh/none-Hi-Kn010G3/L0000-k0 (antibody, human IgG1, kappa, single-arm antibody) heavy: not shown EPKSSDKTHTCPPCPAPELLGGPSVFLFPPKPKDTLMISRTPEVTCVVVDVSHEDPEVKFNWYVDGVEVHNAKTKPREEQYNSTYRVVSVLTVLHQDWLNGKEYKCKVSNKALPAPIEKTISKAKGQPREPQVCTLPPSRDELTKNQVSLWCLVKGFYPSDIAVEWESNGQPENNYKTTPPVLDSDGSFFLYSKLTVDKSRWQQGNVFSCSVMHEALHNRYTQKSLSLSP light: DIVMTQSPLSLPVTPGEPASISCRSSQSLVHSNRNTYLHWYQQKPGQAPRLLIYKVSNRFSGVPDRFSGSGSGTDFTLKISRVEAEDVGVYYCGQGTQVPYTFGQGTKLEIKRTVAAPSVFIFPPSDEQLKSGTASVVCLLNNFYPREAKVQWKVDNALQSGNSQESVTEQDSKDSTYSLSSTLTLSKADYEKHKVYACEVTHQGLSSPVTKSFNRGEC | 5.61

The remaining binders from weak to strong by Kd, led by results:

Kd [nM] | Binder
5.74 | GCH032-G1dh/none-Hi-Kn010G3/L0000-k0 (antibody, human IgG1, kappa, single-arm antibody) heavy: not shown EPKSSDKTHTCPPCPAPELLGGPSVFLFPPKPKDTLMISRTPEVTCVVVDVSHEDPEVKFNWYVDGVEVHNAKTKPREEQYNSTYRVVSVLTVLHQDWLNGKEYKCKVSNKALPAPIEKTISKAKGQPREPQVCTLPPSRDELTKNQVSLWCLVKGFYPSDIAVEWESNGQPENNYKTTPPVLDSDGSFFLYSKLTVDKSRWQQGNVFSCSVMHEALHNRYTQKSLSLSP light: DIVMTQSPLSLPVTPGEPASISCRSSQSLVHSNRNTYLHWYQQKPGQAPRLLIYKVSNRFSGVPDRFSGSGSGTDFTLKISRVEAEDVGVYYCGQGTQVPYTFGQGTKLEIKRTVAAPSVFIFPPSDEQLKSGTASVVCLLNNFYPREAKVQWKVDNALQSGNSQESVTEQDSKDSTYSLSSTLTLSKADYEKHKVYACEVTHQGLSSPVTKSFNRGEC
5.3 | GCH054-G1dh/none-Hi-Kn010G3/L0000-k0 (antibody, human IgG1, kappa, single-arm antibody) heavy: not shown EPKSSDKTHTCPPCPAPELLGGPSVFLFPPKPKDTLMISRTPEVTCVVVDVSHEDPEVKFNWYVDGVEVHNAKTKPREEQYNSTYRVVSVLTVLHQDWLNGKEYKCKVSNKALPAPIEKTISKAKGQPREPQVCTLPPSRDELTKNQVSLWCLVKGFYPSDIAVEWESNGQPENNYKTTPPVLDSDGSFFLYSKLTVDKSRWQQGNVFSCSVMHEALHNRYTQKSLSLSP light: DIVMTQSPLSLPVTPGEPASISCRSSQSLVHSNRNTYLHWYQQKPGQAPRLLIYKVSNRFSGVPDRFSGSGSGTDFTLKISRVEAEDVGVYYCGQGTQVPYTFGQGTKLEIKRTVAAPSVFIFPPSDEQLKSGTASVVCLLNNFYPREAKVQWKVDNALQSGNSQESVTEQDSKDSTYSLSSTLTLSKADYEKHKVYACEVTHQGLSSPVTKSFNRGEC
5.17 | GCH026-G1dh/none-Hi-Kn010G3/L0000-k0 (antibody, human IgG1, kappa, single-arm antibody) heavy: not shown EPKSSDKTHTCPPCPAPELLGGPSVFLFPPKPKDTLMISRTPEVTCVVVDVSHEDPEVKFNWYVDGVEVHNAKTKPREEQYNSTYRVVSVLTVLHQDWLNGKEYKCKVSNKALPAPIEKTISKAKGQPREPQVCTLPPSRDELTKNQVSLWCLVKGFYPSDIAVEWESNGQPENNYKTTPPVLDSDGSFFLYSKLTVDKSRWQQGNVFSCSVMHEALHNRYTQKSLSLSP light: DIVMTQSPLSLPVTPGEPASISCRSSQSLVHSNRNTYLHWYQQKPGQAPRLLIYKVSNRFSGVPDRFSGSGSGTDFTLKISRVEAEDVGVYYCGQGTQVPYTFGQGTKLEIKRTVAAPSVFIFPPSDEQLKSGTASVVCLLNNFYPREAKVQWKVDNALQSGNSQESVTEQDSKDSTYSLSSTLTLSKADYEKHKVYACEVTHQGLSSPVTKSFNRGEC
5.03 | GCH056-G1dh/none-Hi-Kn010G3/L0000-k0 (antibody, human IgG1, kappa, single-arm antibody) heavy: not shown EPKSSDKTHTCPPCPAPELLGGPSVFLFPPKPKDTLMISRTPEVTCVVVDVSHEDPEVKFNWYVDGVEVHNAKTKPREEQYNSTYRVVSVLTVLHQDWLNGKEYKCKVSNKALPAPIEKTISKAKGQPREPQVCTLPPSRDELTKNQVSLWCLVKGFYPSDIAVEWESNGQPENNYKTTPPVLDSDGSFFLYSKLTVDKSRWQQGNVFSCSVMHEALHNRYTQKSLSLSP light: DIVMTQSPLSLPVTPGEPASISCRSSQSLVHSNRNTYLHWYQQKPGQAPRLLIYKVSNRFSGVPDRFSGSGSGTDFTLKISRVEAEDVGVYYCGQGTQVPYTFGQGTKLEIKRTVAAPSVFIFPPSDEQLKSGTASVVCLLNNFYPREAKVQWKVDNALQSGNSQESVTEQDSKDSTYSLSSTLTLSKADYEKHKVYACEVTHQGLSSPVTKSFNRGEC
4.94 | GCH023-G1dh/none-Hi-Kn010G3/L0000-k0 (antibody, human IgG1, kappa, single-arm antibody) heavy: not shown EPKSSDKTHTCPPCPAPELLGGPSVFLFPPKPKDTLMISRTPEVTCVVVDVSHEDPEVKFNWYVDGVEVHNAKTKPREEQYNSTYRVVSVLTVLHQDWLNGKEYKCKVSNKALPAPIEKTISKAKGQPREPQVCTLPPSRDELTKNQVSLWCLVKGFYPSDIAVEWESNGQPENNYKTTPPVLDSDGSFFLYSKLTVDKSRWQQGNVFSCSVMHEALHNRYTQKSLSLSP light: DIVMTQSPLSLPVTPGEPASISCRSSQSLVHSNRNTYLHWYQQKPGQAPRLLIYKVSNRFSGVPDRFSGSGSGTDFTLKISRVEAEDVGVYYCGQGTQVPYTFGQGTKLEIKRTVAAPSVFIFPPSDEQLKSGTASVVCLLNNFYPREAKVQWKVDNALQSGNSQESVTEQDSKDSTYSLSSTLTLSKADYEKHKVYACEVTHQGLSSPVTKSFNRGEC
